Measured values taken from the supplement of paper PMC12636428.

Tested on: Saccharomyces cerevisiae
Assay: transcriptional activation domain activity (GFP:mCherry ratio, weighted mean of sorted bins, harmonized to initial dataset scale) (arbitrary fluorescence ratio units); higher = stronger transcriptional activation
Details: beta-estradiol 1 µM; induction time 4 h
How it was run: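 Each value is an activation activity: the read-weighted mean of bin median fluorescence, averaged across barcodes, then mapped linearly to the initial dataset scale. The tiles, fused to an estradiol-inducible synthetic transcription factor, sat at the yeast URA3 locus in GFP-reporter diploids. Cells spent 4 hours at 30 °C in SC with 1 uM beta-estradiol before sorting into 8 GFP:mCherry bins, and tiles below 50 reads were removed.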

Row | Sequence | transcriptional activation domain activity
1 | TKPAEASAADKKPEEAKPAEAPAPAAAPAAAEAPKAEEKPAPAPAPTEAPKAE | 21400
2 | MCYQGQHVYLNHEVFAQSLLAVGFARCQVRLMWVAGIRPIVRVSTNNFLGSIR | 44800
3 | MLFLMCSLFFFVVFFLWSFFCGLLSLWCICYDISVGAWLTFGLLLVLWLLCIC | 23900
4 | TLHIVLVSYGMYFYLILNFANIAALLSPSWAFLVQVYLTCISDTVVRSVFFSR | 69200
5 | MAEEQPAKPKKHRAAKPKVSTGCVTCKQRRIKCGEEKPHCMRCVKTGRECGGY | 41800
6 | SHLDRRSNQFCRVQFCYKHLLLLWFFLLLFLAYPCQLLCIIIFPNLVSSLCRF | 31200
7 | FQPAVATPTVSIGLIYLIIMAFFSFSFFLPIHMKYIQPQGHPPLHFWQLIIWR | 68900
8 | LCLRLMIKVAFSGEDTEVDFSMLQVAVRYILGIHGVNTLAPAWTFWGKCLDSM | 37000
9 | PILYFLSLSLSLPPSLSLFLFLYIINQISRFWLVLFQLFFLFLFLLFPSILTS | 62800
10 | PLFRHQDSLLIVASNIGLVGMISILVYCTYAFSLQSVVKFYFIPYVLVNHWIV | 45200
11 | MGIGIHTFFYFWLLIFLFLFLFLFFSWFFFFVIVIIFFNYFIFLRAWMWIAGL | 41600
12 | MQCIFVHILLVFIINTFYLVHRLFSSSFLSSFTLFCFLYTHYSFLFFRLIHIS | 69500
13 | MFFFLLLFIIVMYGCLVCEVIHTSFVGLIMVSTLMLNAFSCFMSFTYFLFFLF | 59000
14 | NIIALFLVTNQLTTCSVLPLCMGLFKVFDGFVSEGAVLFGSIFAFFSVLVHGY | 61300
15 | KLAKKEPAAAKPKSEKPKAEKKTTEKKPVAKKATTTKKPAAAKPKAAPKPKTA | 27000
16 | MRLRVFFFISSFMWLLLVSFYCSFFSFAFTLFFFRFPPFFFSLFRFTLLPSPS | 63700
17 | MAALGGGKYFVCMLTQIVVNFCFLLSVPFSSPPLLLPCYLIIRYSFSFFLFCL | 64700
18 | LDLEHLFGIDIEQRFQSYVMTQQAWLMPYLARIYYSHISLGVCFLVYIYTFLP | 44100
19 | VPLEEYIPSDIDGVGRVTDKSSLVYDWPFDESIERNFSTTATAATGESKFDIN | 68100
20 | HTFVRICKLAGDLIDWVGMCVDCGKCSATQGRDCLDVIMRLSIMAVHGLRFVG | 51400
21 | MPNKLVYEICFVHLTINCLCRGCLMYCALYIILIIKYHNHLLYFIFFNFMAIP | 38200

Row | Sequence | transcriptional activation domain activity
22 | IGKVTSAGLMSKTVRVDRPVQEWHNYLRKFYKSSKHYLVHDPANSLRTGDMIS | 69800
23 | RVELLLRSFKVFTLKTGEQCLDYLGDKFRVVLNLPEDWTNTAVGAWLVQKVIL | 39700
24 | LFSDTSFTIVFSNNVSFTYISFDKKVFFCIFFFLLVYFCQTFSFFLLFFLFFL | 44400
25 | MLLLGYILYLFYYGRYLYGILAFYCFSLLYVTLLPFIFVSARLFLHFTQIGIR | 53600
26 | MIILGRMGYSHVLLLPFFNSICFSFLFLPHSLCCLHFNSFYTYFLLLPHPHLF | 61900
27 | MLIVSRAGFLAFLLCYLHFCSVVVHVFSLPIGQPVTGYGNGNSVNPRSPIVPS | 52100
28 | LVYPIVYLYMDRFFMFVLCSPPSHVLGCWESVTVRTYVGILFPLLICCLFYVL | 41100
29 | FTSPLPFALVPLFMYGDAQNWCWFTKQNTLYGIYLWFMWLWILFAFNLVCLFF | 56600
30 | SKSESTHSSAKKADSGKRSGRSKPATSDGGPKGFDSKPSGEKSKKESSRSTKE | 36600
31 | SSEESSSEDDDGDVKMADAKPAANGIYIYLSSINRLINPLQFQVSVKPTRMSL | 47200
32 | NQLAEAHALALLHLEQRLNIAIELPIQKFILSHLPWLMPVLAKIYLSHIIVGV | 57100
33 | LYYTVIRLFHIYPCRDPLAANSTTFNKSLYLVWSFLCMLVYLAHISYLTLLPR | 54100
34 | RELKRMVQEAIRDIREKKSTLTVQHLKRLLFRVAALIICTPKCDHDLLHYLVI | 61800
35 | AFSFALFDFDTLAGTFPFDSLGYSDDISTLTDPLIPMNYDPTPFSWTPRTTLA | 54300
36 | SCFIFLGHHFDVFVSFLLKIGLGDEMLGVLWFFFSCVLLVGAFLLRLLGFYHT | 67900
37 | YYGWLPFGISSILVEIPYCMFFCASFMCGFYWTAGLVNHPVNCGYFYLMLMFF | 69900
38 | FVARLFQSLRRWWDSGLTTHLINASLFFISDGGKYFMGILCYFFQHLWRHHGM | 47900
39 | STGLKPQDPSSDGLRKLALLNILLSGEEDVVSTIPAQRLVFLVKHLLECLKSD | 24800
40 | DSKDKREKFRSRMVVLKSRLLFGVCDPYGVLEEGEVYVRVSVPRMGASTLKNT | 67500
41 | CLYVHQQLRESLGLGWLRQDTFFNYTRDRICVWNLNRKYSAFSTITSTVTHVR | 39700
42 | MSPPEQSGGAPKHRACDECRARKLACSKEPDGCARCKRESQVCHYSAQKPMGR | < 6570

Row | Sequence | transcriptional activation domain activity
43 | MLAMISFFMYPPPLLFFFALWLSFSLFSIHKPPWLLFQNVHFYVLFLFFSFLA | 36300
44 | GLFLVFGFWYIGVCSYGFLGFSLSLGGVYIRFFLYYHYQRILRLISLPFPVWF | 59700
45 | HNQPVPKLLHITIYHLSTIPNDNLASFRDLLNHVHVYLLPLVSARPLFTLVTH | 78800
46 | GELYIYRLISSGLIFDTLWSLVTFGHPKGHPLPQYPCTVDMPDDFFRVRLVCV | 65900
47 | LPLIQRFLIIAPAVIFYSYVYIVPTARRLQLRVCIRNWLGRWYVHLPVLSRSH | 57400
48 | WVMYVIFITVGWYAMVTGQSIVLYSRLHLVVNSIKVLRFVLILICVDVVILHV | 67500
49 | SSPNTGGGLFGSGGTTSAFGANTTSGFGSTSNTGAFGAKTGAFGATTSAGGGL | 35800
50 | YETRPHAHVQEAVLTNRLTSAALYNPGRIAVLPLVCVWRDERTVVVFVHLVLT | 21400
51 | MSVSSPEDVTSEASGPAATAPAHEPLACVNCRSRKLKCDRQKPVCSRCAKAGG | 46300
52 | GSTQAVDLIAYGGYKFVGVITTLISGFEFLHLGRSIYTMVFLYSFLSNAFFLL | 63600
53 | QNAIELTLLCITLIASDTLLLLRVSALCADRSSGVWGISYFYIIRRLLWGVYF | 68700
54 | DAEYMCQYHGSLIGKHFKSLAQVMPFVIYGLVHEDVLHAWNIIGTLLVLLWHT | 33500
55 | ALKILVLLVFIMDTLHTYGIISYQWGLFLYCHHNASFACLSDLPWEVFMCVAL | 41200
56 | AFVLFLVYLTLFCWVCFATSSSWVYSEILNEGQYTESFMPVNYVLLAVLSGII | 64600
57 | ITQVEDRSKGYLIGLVKELVAEYVEDLNALVLLACSLKVGIQVSSAAGMIYKK | 53600
58 | MESHSFLPICRYFWGVMPQLMPSFYLNLLSWFSLCFIVFHWLHTVVIFPYLLL | 49200
59 | NWYWLATTMYFLYGESVVYYLKHIVLVDKVLLPLATHHRFISFILYVFGFVFF | 46100
60 | VNFLGLMYAPLFVLSNFGAANCQHNALLFKFNMHAFFLCFDLFLLYKTWVVAQ | 49900
61 | LLFFFFFFLLLFFLLFLLLRSRPPSSFSPASIVWPLRAGFGIPLPLFLLFFLP | 20800
